Laboratory results from patent US6476188.

How the values were obtained:
[1] = biological target: mouse PERIOD2 (mPER2), in vitro translated, 35S-methionine-labeled, O54943
[2] = biological target: mouse PERIOD1 (mPER1), in vitro translated, 35S-methionine-labeled, O35973
[3] = biological target: phosvitin (Sigma #P-1253)
[4] = biological target: dephosphorylated α-casein (Sigma #C-8032)
[5] = biological target: PERIOD (PER) protein, Drosophila, expressed in S2 cells from hs-per, P07663

Sequence of mouse PERIOD2 (mPER2), in vitro translated, 35S-methionine-labeled, O54943 (O54943 whole entry, looked up): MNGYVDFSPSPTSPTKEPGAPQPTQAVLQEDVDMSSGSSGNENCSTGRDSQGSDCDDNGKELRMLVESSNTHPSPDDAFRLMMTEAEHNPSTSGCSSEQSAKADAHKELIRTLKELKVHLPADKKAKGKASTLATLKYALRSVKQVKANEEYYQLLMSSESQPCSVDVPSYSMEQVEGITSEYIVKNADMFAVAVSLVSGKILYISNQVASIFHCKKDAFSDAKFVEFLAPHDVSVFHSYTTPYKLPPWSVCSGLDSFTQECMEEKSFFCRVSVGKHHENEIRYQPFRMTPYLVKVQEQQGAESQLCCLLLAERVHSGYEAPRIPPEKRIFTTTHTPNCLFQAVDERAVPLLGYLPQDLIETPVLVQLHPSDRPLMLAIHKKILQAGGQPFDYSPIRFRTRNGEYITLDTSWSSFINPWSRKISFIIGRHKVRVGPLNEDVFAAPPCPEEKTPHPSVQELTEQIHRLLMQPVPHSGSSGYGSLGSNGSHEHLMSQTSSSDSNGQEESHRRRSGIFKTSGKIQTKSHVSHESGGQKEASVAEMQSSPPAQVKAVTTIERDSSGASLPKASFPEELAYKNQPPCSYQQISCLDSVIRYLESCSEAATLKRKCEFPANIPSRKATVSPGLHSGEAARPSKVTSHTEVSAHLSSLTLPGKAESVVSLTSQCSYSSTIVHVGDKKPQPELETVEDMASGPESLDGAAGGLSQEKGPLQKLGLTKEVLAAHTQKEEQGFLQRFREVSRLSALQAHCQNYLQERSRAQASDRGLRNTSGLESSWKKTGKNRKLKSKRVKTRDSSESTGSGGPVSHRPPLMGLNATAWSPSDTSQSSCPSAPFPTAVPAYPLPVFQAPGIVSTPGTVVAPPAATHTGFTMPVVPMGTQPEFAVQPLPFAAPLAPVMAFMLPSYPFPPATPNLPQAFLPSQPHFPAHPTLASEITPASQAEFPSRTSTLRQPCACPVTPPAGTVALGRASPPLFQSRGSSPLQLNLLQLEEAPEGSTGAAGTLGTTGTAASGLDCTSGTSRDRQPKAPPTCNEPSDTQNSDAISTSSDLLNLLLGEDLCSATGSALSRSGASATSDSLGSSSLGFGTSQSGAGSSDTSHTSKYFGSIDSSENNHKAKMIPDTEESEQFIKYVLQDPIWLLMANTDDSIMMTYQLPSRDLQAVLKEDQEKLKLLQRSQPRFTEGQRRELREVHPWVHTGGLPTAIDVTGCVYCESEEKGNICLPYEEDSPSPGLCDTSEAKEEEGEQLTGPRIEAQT
Sequence of mouse PERIOD1 (mPER1), in vitro translated, 35S-methionine-labeled, O35973 (O35973 whole entry, looked up): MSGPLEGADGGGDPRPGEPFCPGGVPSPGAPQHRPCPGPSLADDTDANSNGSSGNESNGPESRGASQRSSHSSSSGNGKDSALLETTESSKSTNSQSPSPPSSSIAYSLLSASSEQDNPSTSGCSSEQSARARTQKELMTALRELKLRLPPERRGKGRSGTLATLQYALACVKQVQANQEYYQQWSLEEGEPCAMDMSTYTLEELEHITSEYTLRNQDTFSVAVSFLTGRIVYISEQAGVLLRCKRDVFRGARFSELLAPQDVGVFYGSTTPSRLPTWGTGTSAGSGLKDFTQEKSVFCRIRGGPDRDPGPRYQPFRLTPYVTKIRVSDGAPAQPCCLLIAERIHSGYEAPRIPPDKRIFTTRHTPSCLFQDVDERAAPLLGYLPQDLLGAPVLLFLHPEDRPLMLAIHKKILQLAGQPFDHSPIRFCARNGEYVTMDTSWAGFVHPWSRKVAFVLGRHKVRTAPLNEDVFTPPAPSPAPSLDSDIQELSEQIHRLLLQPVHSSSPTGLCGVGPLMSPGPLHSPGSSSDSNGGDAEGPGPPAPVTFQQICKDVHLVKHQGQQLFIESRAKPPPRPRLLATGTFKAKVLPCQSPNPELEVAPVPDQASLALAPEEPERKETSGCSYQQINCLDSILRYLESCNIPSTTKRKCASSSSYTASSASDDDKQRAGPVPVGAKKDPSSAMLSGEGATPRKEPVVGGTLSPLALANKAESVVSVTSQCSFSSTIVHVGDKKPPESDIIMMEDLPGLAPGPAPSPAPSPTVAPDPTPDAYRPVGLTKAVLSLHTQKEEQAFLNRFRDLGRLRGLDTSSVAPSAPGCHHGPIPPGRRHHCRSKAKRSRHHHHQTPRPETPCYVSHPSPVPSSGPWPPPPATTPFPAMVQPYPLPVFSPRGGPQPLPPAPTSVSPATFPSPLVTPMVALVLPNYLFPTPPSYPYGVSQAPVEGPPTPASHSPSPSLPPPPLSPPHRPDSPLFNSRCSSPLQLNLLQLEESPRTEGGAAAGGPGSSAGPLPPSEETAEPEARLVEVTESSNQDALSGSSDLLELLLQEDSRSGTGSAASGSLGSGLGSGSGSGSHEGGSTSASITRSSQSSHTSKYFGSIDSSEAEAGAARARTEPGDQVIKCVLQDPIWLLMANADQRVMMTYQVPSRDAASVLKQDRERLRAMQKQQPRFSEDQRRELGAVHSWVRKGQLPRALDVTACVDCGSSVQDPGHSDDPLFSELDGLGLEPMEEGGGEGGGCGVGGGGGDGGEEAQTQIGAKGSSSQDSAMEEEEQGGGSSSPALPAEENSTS

Protein | affinity kinase assay, phosphorylation of bound substrate [1] | affinity kinase assay, phosphorylation of bound substrate [2] | Km [3] | Vmax [3] | fold reduction in Vmax against wild-type [3] | 32P signal intensity of phosphorylated substrate, wild-type relative to tau enzyme [4] | 32P signal intensity of phosphorylated substrate, wild-type relative to tau enzyme [3] | phosphorylation of PER in vitro [5]
recombinant tau mutant hamster CK1ε (Arg178Cys) with N-terminal S•Tag and His-Tag fusions, captured on S-protein agarose (protein) MELRVGNKYRLGRKIGSGSFGDIYLGANIASGEEVAIKLECVKTKHPQLHIESKFYKMMQGGVGIPSIKWCGAEGDYNVMVMELLGPSLEDLFNFCSRKFSLKTVLLLADQMISRIEYIHSKNFIHRDVKPDNFLMGLGKKGNLVYIIDFGLAKKYRDARTHQHIPYRENKNLTGTACYASINTHLGIEQSRRDDLESLGYVLMYFNLGSLPWQGLKAATKRQKYERISEKKMSTPIEVLCKGYPSEFSTYLNFCRSLRFDDKPDYSYLRQLFRNLFHRQGFSYDYVFDWNMLKFGAARNPEDVDRERREHEREERMGQLRGSATRALPPGPPTGATANRLRSAAEPVASTPASRIQQAGNTSPRAISRADRERKVSMRLHRGAPANVSSSDLTGRQEVSRISASQTSVPFDHLGK | there is a clear attenuation in phosphorylation of mPER1 and mPER2 by the tau mutant enzyme as compared to wild type CK1ε | there is a clear attenuation in phosphorylation of mPER1 and mPER2 by the tau mutant enzyme as compared to wild type CK1ε | a Km of 29.8 µM | a Vmax of 52.5 µmoles/µg/5 minutes | the tau mutation causes an eight-fold reduction in the Vmax of CK1ε |  |  | 
recombinant wild-type hamster CK1ε with N-terminal S•Tag and His-Tag fusions, captured on S-protein agarose (protein) MELRVGNKYRLGRKIGSGSFGDIYLGANIASGEEVAIKLECVKTKHPQLHIESKFYKMMQGGVGIPSIKWCGAEGDYNVMVMELLGPSLEDLFNFCSRKFSLKTVLLLADQMISRIEYIHSKNFIHRDVKPDNFLMGLGKKGNLVYIIDFGLAKKYRDARTHQHIPYRENKNLTGTARYASINTHLGIEQSRRDDLESLGYVLMYFNLGSLPWQGLKAATKRQKYERISEKKMSTPIEVLCKGYPSEFSTYLNFCRSLRFDDKPDYSYLRQLFRNLFHRQGFSYDYVFDWNMLKFGAARNPEDVDRERREHEREERMGQLRGSATRALPPGPPTGATANRLRSAAEPVASTPASRIQQAGNTSPRAISRADRERKVSMRLHRGAPANVSSSDLTGRQEVSRISASQTSVPFDHLGK | this affinity kinase assay demonstrates that CK1ε phosphorylates mammalian PERIOD proteins | this affinity kinase assay demonstrates that CK1ε phosphorylates mammalian PERIOD proteins | the Km is 55.6 µM | the Vmax is 400 µmoles/µg/5 minutes |  | The wild-type CK1ε kinase produces an 8-fold and 4-fold greater signal intensity, for phosvitin and α-casein respectively, relative to that produced by the tau enzyme. | The wild-type CK1ε kinase produces an 8-fold and 4-fold greater signal intensity, for phosvitin and α-casein respectively, relative to that produced by the tau enzyme. | 
DOUBLETIME protein (DBT), Drosophila, in vitro translated from dbt cDNA P12, 35S-labeled (protein) MELRVGNKYRLGRKIGSGSFGDIYLGTTINTGEEVAIKLECIRTKHPQLHIESKFYKTMQGGIGIPRIIWCGSEGDYNVMVMELLGPSLEDLFNFCSRRFSLKTVLLLADQMISRIDYIHSRDFIHRDIKPDNFLMGLGKKGNLVYIIDFGLAKKFRDARSLKHIPYRENKNLTGTARYASINTHLGIEQSRRDDLESLGYVLMYFNLGALPWQGLKAANKRQKYERISEKKLSTSIVVLCKGFPSEFVNYLNFCRQMHFDQRPDYCHLRKLFRNLFHRLGFTYDYVFDWNLLKFGGPRNPQAIQQAQDGADGQAGHDAVAAAAAVAAAAAASSHQQQQHKVNAALGGGGGSRAQQQLQGGQTLAMLGGNGGGNGSQLIGGNGLNMDDSMAATNSSRPPYDTPERRPSIRMRQGGGGGGGGVGVGGMQSGGGGGGVGNAK |  |  |  |  |  |  |  | the formation of a PER/DBT complex leads to DBT-dependent phosphorylation of PER in vitro
